In patent US20090324566A1 (published 2009):

Experiments:
[1] = molecular target: T1, MAGE-A4 peptide on HLA-A*24:02 (human); experiment: multimer staining
T1 peptide: NYKRCFPVI

[2] = molecular target: T2, MAGE-A4 peptide on HLA-A*02:01 (human); experiment: killing
T2 peptide: NYKRCFPVI
Procedure: (§1) The T2 cells, the T2-A24 cells, and T2-A2 cells prepared by transfecting HLA-A0201 gene into T2 cells were washed 3 times with RPMI 1640 medium, and the washed cells were suspended in RPMI 1640 medium so as to have a density of 5×10⁶ cells/mL. P143 or P715 was added to 1 mL each of the above-mentioned cell suspensions so as to have a final concentration of 10 μM, and the mixture was allowed to stand at room temperature for 15 minutes. Thereafter, 1 mL each of RPMI 1640 medium containing 10% FCS was added thereto, and the mixture was incubated at 37° C. for 1 hour. […]
(§2) The ms69 cells, the RNA-transduced ms69 cells, the #2-28 cells, the CD8 positive cells, and the RNA-transduced CD8 cells were washed twice with RPMI 1640 medium, and the washed cells were suspended in RPMI 1640 medium containing 10% FCS so as to have a density of 2×10⁶ cells/mL, 1×10⁶ cells/mL, 5×10⁵ cells/mL, 2.5×10⁵ cells/mL, 1.25×10⁵ cells/mL, and 6.25×10⁴ cells/mL (effector cells), respectively, and a 100 μL portion thereof was put in each well of a 96-well V-bottom plate. […] The mixture was reacted at 37° C. for 4 hours, and thereafter the supernatants were collected by centrifugation, and an amount of ⁵¹Cr released to 100 μL of the supernatant was determined by using a gamma counter. The specific cytotoxic activity was calculated from the measured value of radioactivity according to the following formula.

[3] = molecular target: T3, SAGE peptide on HLA-A*24:02 (human); experiment: killing
T3 peptide: LYATVIHDI
Procedure: as §1, §2

- binding result [1]: recognises
B1: HLA-A24-restricted, MAGE-A4 143-151-specific TCR of CTL clone #2-28 (SEQ ID NOs 1 and 2) (TCR, V domains shown)
Valpha: AQSVSQHNHHVILSEAASLELGCNYSYGGTVNLFWYVQYPGQHLQLLLKYFSGDPLVKGIKGFEAEFIKSKFSFNLRKPSVQWSDTAEYFCAGRGGGNKLTFGTGTQLKVEL
Vbeta: DTGVSQNPRHKITKRGQNVTFRCDPISEHNRLYWYRQTLGQGPEFLTYFQNEAQLEKSRLLSDRFSAERPKGSFSTLEIQRTEQGDSAMYLCASSLAQGAGETQYFGPGTRLLVL
- binding result [2]: no recognition
- binding result [3]: no recognition
